Experimental data reported in patent US20150141335A1, “THERAPEUTIC USES OF FIBROBLAST GROWTH FACTOR 21 PROTEINS” (Eli Lilly and Company, published 2015).

Experiments:
wild type mouse βKlotho = target: T1, wild type mouse βKlotho (mouse, UniProt Q99N32); assay: cell-based or functional assay
T1 sequence: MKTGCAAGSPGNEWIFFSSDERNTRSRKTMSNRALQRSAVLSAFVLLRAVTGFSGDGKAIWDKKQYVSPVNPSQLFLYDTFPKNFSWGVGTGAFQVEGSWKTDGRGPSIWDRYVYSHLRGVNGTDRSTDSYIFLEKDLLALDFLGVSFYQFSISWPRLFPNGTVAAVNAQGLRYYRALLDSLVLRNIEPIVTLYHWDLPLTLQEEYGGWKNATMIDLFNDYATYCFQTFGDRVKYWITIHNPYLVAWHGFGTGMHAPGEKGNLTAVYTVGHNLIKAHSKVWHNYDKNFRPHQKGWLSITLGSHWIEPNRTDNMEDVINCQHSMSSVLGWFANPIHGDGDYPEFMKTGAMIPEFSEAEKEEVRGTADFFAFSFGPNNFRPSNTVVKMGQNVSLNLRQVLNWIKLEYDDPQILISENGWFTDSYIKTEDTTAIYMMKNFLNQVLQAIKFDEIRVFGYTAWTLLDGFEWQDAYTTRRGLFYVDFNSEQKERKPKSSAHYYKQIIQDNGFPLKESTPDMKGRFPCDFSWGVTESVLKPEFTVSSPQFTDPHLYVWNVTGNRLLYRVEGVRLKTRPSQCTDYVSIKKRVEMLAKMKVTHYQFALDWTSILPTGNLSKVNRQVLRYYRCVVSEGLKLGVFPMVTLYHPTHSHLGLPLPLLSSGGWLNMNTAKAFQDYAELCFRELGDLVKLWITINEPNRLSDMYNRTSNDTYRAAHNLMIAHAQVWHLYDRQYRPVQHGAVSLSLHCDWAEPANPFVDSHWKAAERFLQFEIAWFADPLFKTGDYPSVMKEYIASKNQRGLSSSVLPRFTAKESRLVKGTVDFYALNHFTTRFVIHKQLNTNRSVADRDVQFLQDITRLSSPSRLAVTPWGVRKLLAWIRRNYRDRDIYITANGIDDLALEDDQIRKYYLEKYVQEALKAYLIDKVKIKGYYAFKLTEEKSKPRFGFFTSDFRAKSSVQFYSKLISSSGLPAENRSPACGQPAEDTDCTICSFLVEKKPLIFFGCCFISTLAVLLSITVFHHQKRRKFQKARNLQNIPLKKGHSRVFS

human βKlotho = human βKlotho (human, UniProt Q86Z14); assay: cell-based or functional assay

B1: FGF21 protein of SEQ ID NO: 1 (ligand)
chain: HPIPDSSPLLQFGGQVRQRYLYTDDAQQTECHLEIREDGTVGCAADQSPESLLQLKALKPGVIQILGVKTSRFLCQRPDGALYGSLHFDPEACSFREDLLEDGYNVYQSEAHGLPLHLPGDKSPHRKPAPRGPARFLPLPGLPPALPEPPGILAPQPPDVGSSDPLRLVEPSQLLSPSFLG
glucose uptake (2-deoxy-D-(14C) glucose) in 3T3-L1-βKlotho fibroblasts, in vitro potency (EC50) (wild type mouse βKlotho): 0.026 nM | SRE driven luciferase in 293-βKlotho-SRE luc cells, in vitro potency (EC50) (human βKlotho): 0.25 nM
